The source of these data is the domain aggregation screens of Martell et al. (2025).
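Further: 20 min heating vs room temperature control held 20 min.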

The data set in a line: soluble fraction after stress (log2 fold change); higher = more stays soluble; pooled small domains, quantitative proteomics. Conditions: stress: 75 degC.
“HMLLSYDIAEYIEKYIHEHGLQPGDRLPTERELAAQLDITRVSVRQGYKRLLDQGVIRSENGYYVNPPR”: the “soluble fraction (log2)” value is -1.68.
With “HMLLTDGLERRIDGDKNLHIRISLPMLVKGQIKLAKSGNNESTVKGIFKIESYPGSHPRDVVTEIIEG”, the “soluble fraction (log2)” value was -0.236.
Under “HMLLTHPKRVFTYELIMELVWNEDYTFYSKKAVSNHMSNLRKKLKVTPDALDYIKNIVGVGYKFEA” stands -1.11; under “HMLMKKTITHEIELLEFLKQIFPQSSTNKLRKMLSNGRIKINSEIVHKAKYKLQENDTFELLDNPT”, -2.61.
For the sequence “HMLNEIMDTINKYISDKRNNKVAQNILSAALDELNSQIRVGLKDLNPHSIEEFKENVINSPYIEFEQG”, the “soluble fraction (log2)” value was -0.0112.
To “HMLNEWIDYIDEHIKEELTAKNLATVFGYSERHFRNVFQIYYDIKLNDYIRRRKLYFAAQELKKG” belongs -1.27; to “HMLNMSVYDKQLLRAVENNPFISQRELARELHWNVDRVKYYMKKWKDKGGLRHVGSSHKGYWEVLVRIEEK”, -0.891; to “HMLNNVDIHKLSEDLLLYKIKIDIKLKNIEDAISTIDYFSNKFPNSDLMPYVIYEKKLIDNI”, -2.59.
To “HMLNPLLLPFVEAEDFQVKLEILAAMEGKVGEEDLDILYEALDLPKMTGNIEEQIHSIKQYIEMRK” belongs -1.18; to “HMLNPVEKLLLLSQLYIGRLKGSFVVKEKHHKSTILGEVRELSPEEITLKTDEGYRLIRVDDILTIQL”, -4.44.
As to “HMLNSLDATQRLKLNKDGVVVFNFGKYVDQSVIDIFKKEKGYYNWMMSKDFSQQVKNIITKIYQEEIIG”, the “soluble fraction (log2)” value was -1.08.
Take “HMLNTLGADIRALRKARGLTLAELAQTLGRSVGWLSQVERDMSEPGINDLRDLARALDVSISSLFG”: the “soluble fraction (log2)” value is -1.8.
To “HMLNWINSDVLERFNSLTKEKQKAIVADTETRLNGLSQARFKVAKSSSNERLIAEFAIEINEAIMRAAAL” belongs -2.11.
To “HMLPADETEARVLNVLGSEPLHVDEIRNQADLPIEKISATLAMMELKGMVRQVGGMNYVAMR” belongs 0.0378.
Under “HMLPANGEAIYHYLASGAIKGVGPVTAQRIVDKFGEDTFDVLENNPLWLAEIKGITRKTAENIGAAFAAQF” stands 0.631; under “HMLPDAESFSYEVPYTKGDGGTYNYEGKIKAQNADAARDEIIRQAQVYFQMNPQFTPDYPSTTITSLD”, 0.14; under “HMLPDDDMLLNILTKLLIDKQFVINSHEIFDFIIKRANRSYEEMFILVNKLDQLSLEKKRQLTIPLIKEI”, -0.881.
With “HMLPDLQESIDELLNIVDQRLNTSFEELVSGVNTTEKAIAFFLALLETIKWGFIKAEQTNNENKINIEKNY”, the “soluble fraction (log2)” value was -0.146.
Under “HMLPDPIYEAFMMASDLGIVVRNGPQYAYPDKETGEVLYKALGREKFLQLMKDNDGLLTSIETEIRSM” stands -1.61.
In the case of “HMLPKTVTLIDPVSGVAKTVTWVPALTLYSARRKAGLNRVPNTATIDRGGRELTGKRGSTLQPGDVVRW”, the “soluble fraction (log2)” value is -0.664.
For the sequence “HMLPPLGDQELELLRFITESAPITVREAAESYGKDRGLARTTVLTMMERLRAKGYLTRSESGAANEYSP”, the “soluble fraction (log2)” value is -0.64.
“HMLPPVFLTIDANENVIVRKDGEPVQTLNKFELGAFARSQAENSAEQPVVLAADKSIKYEVVMEVI”: the “soluble fraction (log2)” value is 0.192.
Under “HMLPRLVLSPGTEVLATVMGKYENGMSLVKISSHLFAMDLPSRVQVGDSLRMTFLHQDARPTFALA” stands -1.11; under “HMLPSDLDEGNRRRQLIEGAARLFRAKGFDGTSTRDIAAAAGMRSGSPFYHFDSKNALLYVVVQEGM”, -0.0127; under “HMLPSWLPTDAWEAFLEARVAMKARPTERAKGLLLGELSKLVSQGQDARAVLEQSVQRGWRGLFPVK”, -1.76.
Under “HMLPSWPGVSEFEVARLLRRGRARGSLTLDEVIDVVRDAELTSELIAGIRSSLRAEGIDFEET” stands -0.731; under “HMLPTLSLSVKIYKGEGDIALDLEEMVKAFDQLNFGSYPFSEKGVHGTNIVIRGNDKKHMEEAEDKVRSLT”, -0.438.
With “HMLPVDALFAQHPALIVTLGQTEKLKHGAAIRDWHFADGTYRVYSETGEFLLLGTVKGQILTTVKSFFE”, the “soluble fraction (log2)” value is -2.24.
